“Also recorded” adds a separate entry of the source. Like-named read-outs stand apart in the source and are kept apart here.
Experiments:
LRP5 = molecular target: T1, LRP5 (Homo sapiens, UniProt O75197); assay: TCF-luciferase assay in HOB-03-CE6 cells, LRP5; assay type: cell-based
T1 construct: Site-directed mutants of LRP5 were generated in the full-length human LRP5 cDNA; expressed in transfected cells; host or cells: HOB-03-CE6 osteoblastic cells; U2OS osteosarcoma cells; HEK293
Protocol: (§1) HOB-03-CE6 osteoblastic cells developed by Wyeth Ayerst (Philadelphia, Pa.) were seeded into 24-well plates at 150,000 cells per well in 1 ml of the growth media (D-MEM/F12 phenol red-free) containing 10% (v/v) heat-inactivated FBS, 1×penicillin streptomycin, and 1X Glutamax-1, and incubated overnight at 34° C. The following day, the cells were transfected using Lipofectamine 2000® (as described by the manufacturer, Invitrogen) in OptiMEM (Invitrogen) with 0.35 μg/well of LRP5, HBM, or control plasmid DNA (empty vector pcDNA3.1) and either Wnt1 or Wnt3 a plasmid DNA. Similar experiments were performed with LRP6 plasmid DNA (0.35 μg/well) or a control pEDdpc4 empty vector. […] All wells were transfected with 0.025 μg/well of CMV beta-galactosidase plasmid DNA and 0.35 μg/well 16X TCF(ASyluciferase reporter DNA (developed by Ramesh Bhat, Wyeth-Ayerst (Philadelphia, Pa.)). After 4 hours of incubation, the cells were rinsed and 1 ml of fresh growth media was added to each well. The cells were cultured overnight at 34° C., followed by a wash and a change of media. Cells were cultured for an additional 18-24 hours at 37° C. Cells were then lysed with 50 μl/well of 1X lysis buffer. The extracts were assayed for beta-galactosidase activity (Galacto Reaction Buffer Diluent & Light Emission Accelerator, Tropix) using 5 μl extract+50 μl beta-galactosidase diluent and luciferase activity (Luciferase Assay Reagent, Promega) using 20 μl extract.

HBM [1] = molecular target: T2, HBM (Homo sapiens, UniProt O75197, G171V); assay: TCF-luciferase assay in HOB-03-CE6 cells, HBM; assay type: cell-based; conditions: Wnt1, FIG. 14
T2 construct: Full length Zmax/LRP5 and HBM ORF cDNA; expressed in transfected cells; host or cells: HOB-03-CE6 osteoblastic cells; U2OS osteosarcoma cells; HEK293
Protocol: as §1, with “DNA.” for “DNA. Similar experiments were performed with LRP6 plasmid DNA (0.35 μg/well) or a control pEDdpc4 empty vector.”

endogenous LRP5/6 = assay: Cell-based TCF reporter high-throughput assay, endogenous LRP5/6; parameters: species or system human; conditions: U2OS cells, no Wnt3a/Wnt1 transfection, FIG. 21
Description: To develop a high throughput assay, the TCF-luciferase assay described in Example 7 was modified utilizing low level expression of endogenous LRP5/6 in U2OS and HEK293 cells. […] Using U2OS (human osteosarcoma) and HEK293 (ATCC) cells, the TCF-luciferase and tk-Renilla reporter element constructs were co-transfected along with Wnt3a/1 and Dkk.

HBM [2] = molecular target: T2, HBM; assay: Cell-based TCF reporter high-throughput assay, HBM cDNA; conditions: U2OS cells, Wnt1 or Wnt3a/Wnt1 co-transfected, FIG. 20
Description: To develop a high throughput assay, the TCF-luciferase assay described in Example 7 was modified utilizing low level expression of endogenous LRP5/6 in U2OS and HEK293 cells. However, HOB-03-CE6 cells and any other cells which show a differential response to Dkk depending on whether LRP5, LRP6 or HBM are expressed. Using U2OS (human osteosarcoma) and HEK293 (ATCC) cells, the TCF-luciferase and tk-Renilla reporter element constructs were co-transfected along with Wnt3a/1 and Dkk. Wnt3a alone, by using endogenous LRP5/6, was able to stimulate TCF reporter gene activation. When Dkk, is co-transfected with Wnt3a/Wnt 1 and reporters (TCF-luci and tk-Renilla), DEkk represses reporter element activity. In addition, the TCF-luci signal is activated by Wnt3a/Wnt1 can be repressed by the addition of Dkk-enriched conditioned media to the cells containing Wnt3a/Wnt1 and reporters.
The Dkk-mediated repression of the reporter is dependent upon the concentration of transfected Dkk cDNA or on the amount of Dkk-conditioned media added. In addition, the Dkk-mediated reporter suppression can be altered by the co-transfection of LRP5, LRP6, and HBM cDNAs in the U2OS or HEK293 cells. In general, U2OS cells show greater sensitivity to Dkk-mediated reporter suppression than that in HEK-293 cells. […]

LRP6 = LRP6 (Homo sapiens, UniProt O75581); conditions: cited from earlier work
canonical Wnt signaling = conditions: Bafico et al.; Dkk-1 added at 30 pM; cited from earlier work

T1 sequence (O75197 32-1615): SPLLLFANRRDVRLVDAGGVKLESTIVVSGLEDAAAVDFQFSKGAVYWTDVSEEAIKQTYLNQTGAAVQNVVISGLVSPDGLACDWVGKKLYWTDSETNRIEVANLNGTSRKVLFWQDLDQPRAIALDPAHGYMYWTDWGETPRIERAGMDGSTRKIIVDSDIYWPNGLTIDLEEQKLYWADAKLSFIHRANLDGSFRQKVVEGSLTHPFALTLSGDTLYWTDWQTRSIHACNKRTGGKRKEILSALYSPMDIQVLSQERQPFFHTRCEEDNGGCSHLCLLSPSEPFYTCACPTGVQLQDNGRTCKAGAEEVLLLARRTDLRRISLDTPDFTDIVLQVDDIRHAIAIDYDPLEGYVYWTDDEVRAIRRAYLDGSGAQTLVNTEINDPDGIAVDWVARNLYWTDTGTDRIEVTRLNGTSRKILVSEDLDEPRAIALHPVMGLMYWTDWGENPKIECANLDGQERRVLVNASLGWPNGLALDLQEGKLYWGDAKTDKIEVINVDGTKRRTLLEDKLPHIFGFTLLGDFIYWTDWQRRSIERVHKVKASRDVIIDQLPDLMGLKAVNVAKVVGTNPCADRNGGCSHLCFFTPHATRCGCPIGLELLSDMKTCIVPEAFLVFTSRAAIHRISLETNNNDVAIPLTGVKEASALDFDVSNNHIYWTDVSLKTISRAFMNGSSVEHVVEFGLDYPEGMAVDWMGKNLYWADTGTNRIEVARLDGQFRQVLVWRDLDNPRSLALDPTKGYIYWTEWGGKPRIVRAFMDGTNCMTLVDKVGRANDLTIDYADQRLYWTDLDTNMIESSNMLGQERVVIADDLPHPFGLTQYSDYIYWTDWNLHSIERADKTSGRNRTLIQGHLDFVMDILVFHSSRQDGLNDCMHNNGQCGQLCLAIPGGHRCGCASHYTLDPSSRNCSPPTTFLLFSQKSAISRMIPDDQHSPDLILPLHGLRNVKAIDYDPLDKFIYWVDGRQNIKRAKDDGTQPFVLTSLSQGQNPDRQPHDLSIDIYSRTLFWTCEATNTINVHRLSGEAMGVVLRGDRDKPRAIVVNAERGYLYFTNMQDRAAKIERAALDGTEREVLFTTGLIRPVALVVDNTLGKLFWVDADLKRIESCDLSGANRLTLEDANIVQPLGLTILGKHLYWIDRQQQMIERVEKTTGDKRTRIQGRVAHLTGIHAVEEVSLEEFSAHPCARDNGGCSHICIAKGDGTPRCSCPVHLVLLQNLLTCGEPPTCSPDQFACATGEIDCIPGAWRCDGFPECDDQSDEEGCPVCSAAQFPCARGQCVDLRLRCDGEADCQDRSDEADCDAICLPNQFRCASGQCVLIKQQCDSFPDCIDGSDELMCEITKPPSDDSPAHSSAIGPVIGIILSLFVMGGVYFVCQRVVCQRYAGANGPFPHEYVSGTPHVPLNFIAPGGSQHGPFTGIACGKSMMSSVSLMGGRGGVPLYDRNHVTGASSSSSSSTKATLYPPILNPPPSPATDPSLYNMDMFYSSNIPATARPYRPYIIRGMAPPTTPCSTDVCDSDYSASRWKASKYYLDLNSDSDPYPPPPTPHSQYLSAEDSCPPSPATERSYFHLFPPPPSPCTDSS
T2 sequence (O75197 32-1615 G171V): as the sequence (O75197 32-1615) above, with G140V counted along it
LRP6, sequence (O75581 20-1613, species assumed): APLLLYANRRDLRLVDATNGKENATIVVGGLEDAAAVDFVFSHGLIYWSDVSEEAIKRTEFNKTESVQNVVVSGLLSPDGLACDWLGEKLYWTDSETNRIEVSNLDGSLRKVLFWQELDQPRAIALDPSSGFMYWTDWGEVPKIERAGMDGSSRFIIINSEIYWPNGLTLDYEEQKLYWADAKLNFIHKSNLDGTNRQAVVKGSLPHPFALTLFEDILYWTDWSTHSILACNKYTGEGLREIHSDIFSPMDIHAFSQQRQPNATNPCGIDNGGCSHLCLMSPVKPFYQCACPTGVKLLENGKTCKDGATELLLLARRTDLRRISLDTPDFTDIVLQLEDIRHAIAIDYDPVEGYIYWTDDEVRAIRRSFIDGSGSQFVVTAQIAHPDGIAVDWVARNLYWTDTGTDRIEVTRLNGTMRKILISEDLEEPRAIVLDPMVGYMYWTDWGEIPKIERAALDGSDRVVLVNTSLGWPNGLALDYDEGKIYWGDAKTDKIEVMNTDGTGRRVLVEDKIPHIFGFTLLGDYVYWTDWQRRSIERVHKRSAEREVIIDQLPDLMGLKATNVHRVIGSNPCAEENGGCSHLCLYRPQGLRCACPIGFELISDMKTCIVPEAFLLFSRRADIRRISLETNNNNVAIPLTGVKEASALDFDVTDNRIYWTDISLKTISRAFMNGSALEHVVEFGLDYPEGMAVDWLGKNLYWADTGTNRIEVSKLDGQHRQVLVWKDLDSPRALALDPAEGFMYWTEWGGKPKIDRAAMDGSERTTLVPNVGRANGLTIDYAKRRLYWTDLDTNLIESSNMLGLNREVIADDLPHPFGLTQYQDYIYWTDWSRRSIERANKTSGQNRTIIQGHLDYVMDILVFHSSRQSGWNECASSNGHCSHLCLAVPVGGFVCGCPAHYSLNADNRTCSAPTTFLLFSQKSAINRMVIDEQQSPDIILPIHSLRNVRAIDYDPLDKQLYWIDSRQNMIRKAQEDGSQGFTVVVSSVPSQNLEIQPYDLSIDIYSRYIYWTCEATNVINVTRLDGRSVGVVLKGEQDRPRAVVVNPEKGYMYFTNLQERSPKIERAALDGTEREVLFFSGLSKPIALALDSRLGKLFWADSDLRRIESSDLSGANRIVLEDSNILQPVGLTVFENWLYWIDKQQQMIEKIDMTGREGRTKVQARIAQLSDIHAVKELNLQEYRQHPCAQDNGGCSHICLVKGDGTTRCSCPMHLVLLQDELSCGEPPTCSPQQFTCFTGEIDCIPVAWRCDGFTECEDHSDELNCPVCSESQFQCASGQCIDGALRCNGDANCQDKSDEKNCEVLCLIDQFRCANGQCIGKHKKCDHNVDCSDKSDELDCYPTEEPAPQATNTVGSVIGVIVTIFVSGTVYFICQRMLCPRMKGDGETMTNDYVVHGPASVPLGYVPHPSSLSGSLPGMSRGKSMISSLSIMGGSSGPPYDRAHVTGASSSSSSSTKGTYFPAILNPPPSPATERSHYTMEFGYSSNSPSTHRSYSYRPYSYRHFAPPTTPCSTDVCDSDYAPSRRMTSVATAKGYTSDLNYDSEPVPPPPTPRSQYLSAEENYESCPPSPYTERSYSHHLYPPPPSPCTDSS

Dkk-1: Dickkopf-1 protein, antagonist of the Wnt pathway; expressed from human cDNA (RNA or plasmid)
LRP5/Wnt1 mediated TCF-luciferase activity (LRP5; Wnt1, FIG. 14): significantly antagonized TCF-luciferase activity; also recorded: had no effect on LRP5 or HBM mediated TCF-luciferase activity | LRP5/Wnt3a mediated TCF-luciferase activity (LRP5; Wnt3a, FIG. 15): able to antagonize LRP5/Wnt3a | HBM/Wnt1 mediated TCF-luciferase activity (HBM [1]): no effect; also recorded: had no effect on LRP5 or HBM mediated TCF-luciferase activity | modulation of TCF signal without Wnt DNA transfection (endogenous LRP5/6): can be modulated | modulation of TCF signal without Wnt DNA transfection (endogenous LRP5/6; listed as Dkk1): can repress TCF-luci | Dkk-mediated repression of HBM signaling (TCF reporter) (HBM [2]): not efficiently inhibited; also recorded: little or no effect | Dkk-mediated repression of HBM signaling (TCF reporter) (HBM [2]; listed as Dkk1): least | Kd (LRP6; Bafico et al., 125I-labeled Dkk-1): 390 pM | Kd (LRP6; Mao et al., classical biochemical ligand-receptor studies): 340 pM | functional consequence of Dkk-1/LRP6 interaction on canonical Wnt signaling (canonical Wnt signaling): repression of the canonical Wnt signaling
